Data as given in PMC11467180.

Biological target: rA3GR8/E259A (Macaca mulatta (rhesus macaque), UniProt M1GSK9 1-138+=AEAG+147-383, E259A;internal_change)
Assay: EMSA

Binder	Kd [nM]
TTTTAATTTT (ssDNA) [AA-DNA 10 nt]	318 ± 64
TTTTGATTTT (ssDNA) [GA-DNA 10 nt]	473 ± 95
